From the nanobody polyreactivity screen of Harvey et al. (2022)

Test: yeast display, Sf9 membrane polyspecificity reagent, FACS + sequencing; frameworks hold sequencing errors
Procedure, shortened: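 Polyreactivity labels are assigned by the sorting gate from which each nanobody was recovered. The gates were low and high (top ~1%), set on anti-HA fluorescence for expression and streptavidin fluorescence for reagent binding. Before sorting, galactose-induced (36–48 hours) yeast display cells were stained for 1 hour at 4 °C with 10% biotinylated, detergent-solubilized Sf9 membrane reagent.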

Sequence | polyreactivity (PSR sort gate)
QVQIVESGGGLVQAGGSLRLSCAASGSIFDKNAMGWYRQAPGKEREFVAAITWSDGNTYYADSVKGRFTISRDNAKNTVYLQMNSLKREHTAVYYCNADALGVFWDRGGWFDDYWGQGTQVTVSS | low polyreactivity
QVQLVESGGGLVQAGGSLRLSCAASGSIFNWYAMGWYIQAPGKERELVAAISSSGSTNYADSVKGRFTISRDNAKNTVYLQMNSLKPEDTEVYYCNADEYYLNNYNYGYWGQGTQVTVSS | low polyreactivity
QVQLVESGGGLVQAGGSLRLSCAASGYIFEYYAMGWYRQAPGKERELVAAISVGGGSTYYADSVKGRFTISRDNAKNTVYLQMNSLKPEDTAVYYCAAVQLYQKHQITYVAHEYWGQGTQVTVSS | low polyreactivity
QVQLVEAGVCLVQSGGRLRLSCAATGFTFTSKVIGWSRQAPGKERELVADISASDGRTYYADSVKGRFRISRENAKNTVYLQMNRLKTEDTAVYYCAASLWVYVGQARYHWYDYWGQGTQVTVSS | low polyreactivity
QVQLLESGGGLVQAGGSLRLSCAASGRIFKFKAMGWYRQAPGKERQLVAATWSGGRTSYADSVKGRITISRDNAKYTVYLQMNSLKPEDTAVYYCAARWFDGDWDYWYDYWGQGTQVTVSS | low polyreactivity
QVQLVESGGGLVQAGGSLRLSCAASGSIFRYYAMGWYRQAPGKERELVAAISNRGSSTNYADSVKGRFTISRDNAKNTVYLQMNSLKPEDTAVYYCAARVRYPGLSGNMYYWGQGTQVTVSS | high polyreactivity
QVQLVESGGGLVQAGGSLRLSCAASGRIFRYNAMGWYRQAPGKERELVADINSGGITNYADSVKGRFTISRDNAKNTVYFQKNSLKPEDTAVYYCNTATNLSCGYDSWGQGTQVTVSS | low polyreactivity
QVQLVESGGGLVQAGGSLRLSCAASGRIFYYAMGWYRPAPGKERELVAAISRSGGSTYYADSVKGRFTISRDNAKNTVYLQMNSLKPEDTAVYYCAAVIYIYPISKRDYWGQGTQVTVSS | low polyreactivity
QVQLVESGGGLVQAGGSLRLSCAASGIIFYLYAMGWYRQAPGKERELVAAISRRGVSTYYADSVKGRFTISRDNAKNTVYLQMNSLKPEDTAVYYCAAAGFGYTGEEYWGQGTQVTVSS | high polyreactivity
QVQHVESGRGLVQAGGSLRLSCAASGIIFLYYAMGWYREAPGKVRELVAAITGSGGTTYYADSVKGRFTISRDNAMNTVYLQMNSLKPEDTAVYYCATPPPEVWQRWYREYDYWGQGTQVTVSS | low polyreactivity
HAQLQESGVGLVQAGGSLRRSCAASGSIFRFSGMGWYRRAPGKERELVASIGFGSITYYADRVKGRFTISRDNANNTEYLQMNSLKPEDTAVYYCAVQVQDESWLDYWGQGTQVTVSC | low polyreactivity
QVQLVESGGGLVQAGGSLRLSCAASGIILRYYAMGWYRQAPGKERELVAAITRGGSTNYADSVKGRFTISRDNAKNTVYLQMNSLKPEVTAVYYCAADVVFWFSNVAWRDFGYWGQGTQVTVSS | low polyreactivity
QVQLVESGGGLVQAGGSLRLSCAATGRIFTTYAMGWYRQAPGKERELVAAITSGGGTYYADSVKGRFTISRDNAKNTVYLQMNSLKPEDTAVYYCNADYSADYYWYYYCGQGTQVTVSS | low polyreactivity
QVQHVESGGGLVQAGGSLRLSCAASGLILVYYAMGWYRQAPGKERELVAAITPGGSTKYADSVKGRFTISRDNAKNTVYLQMNSLKPEDTAVYYCAVDGDCHEPGNYIYEYDYWGQGTQVTVSS | low polyreactivity
QVQLVESGGGLVQAGGSLRLSCAASGSTFVSNAMGWYRQAPGKERELVAAISSSGGRTSYADSVKGRFTISRDNAKNTVYLQMNSLKPEDTAVYYCAARFKSVDYVQYYYWGQGTQVTVSS | low polyreactivity
QVQLQESGGGLVQAGGSLRLSCAASGTISPLPAMGWYRQAPGKEREFVAGIDTGAITNYADSVKGRFTISRDNAKNTVYLQMNSLKPEDTAVYYCAADLFLDGSSQYAPNWWPDGWNTYRLLGGYWGQGTQVTVSS | low polyreactivity
QVQLVESGGGLVEAGGSLRLSCAASGFTFRQYAMGWYRQAPGKEWELVAAISSGGSTYYADSVKGRFTISRDNAKNTDYVQMNSLKPEDTAVYYCAATHWAYSRVPYDYWGQGTQVTVSS | high polyreactivity
QVQLVESGGGLVQAGGSLRLSCAASGSIFFSYAMGWYRQARGKERELVAAISTSGGNTYYADSVKGRFTISRDNAKNTVYLQMNSLKPEDTAVYYCNALYIYFYNYLTMDYWGQGTQVTVSS | low polyreactivity
QVQLVESGGGLVQAGGSLRLSCAASGSTFPSNAMGGYRQAPGKARELDAAISDSGSTTYYADSVKGRFTISRDNAKNTVYLQMNSLKPEDTAVYYCNADWWQYDFVFWTFGYDDWGQGTQVTLSS | low polyreactivity
QVQLVESGGGLVQAGGSLRLSCAASGRTFGWYAMGWYRQAPGKEREFVAVISRSGTNTYYADSVKGRFTISRDNAKNTVYLQMNSLKPEDTAVYYCATYWSLSQSRQGDYWGQGTQVTVSS | high polyreactivity
QVQLVESGRGLVQAGGSLRLSCAASGRIFPFYAMGWYRQAPGKERELVAAISSSGGSTYYADSVKGRFTISRDNAKNTVYLQMNSLKPEDTAVYYCAATRNSDGMGYWGQGTLVTVSS | low polyreactivity
QVQLVESGGGLVQAGGSLRLSCAASGLIFYDNMGWYRQAPGKERELVAAISSSGGSTSYADSVKGRFTISRDNAKNTVYLQMISLKPEDTAVYYCAADSSPAFLGFVGFEYWGQGTEVTVSS | low polyreactivity

Sequence | polyreactivity (PSR sort gate)
QVHLVESGGGLVQAGGSLRLSCAASGSIFRYNVKAWYRQAPGNERQFVAANTARGGSTYYPESVKVRFTISRDYAKNTVYRQMISMKPEDTAVYYCATVSQQSRSLGIDRIYYWGQGTQVTVSS | high polyreactivity
QVQLVESGGGLVQAGGSLRLSCAASGSIFAQYTMGWYRQAPGKERELVAVISINGVSTYYADSVKGRFTISRDNAKNTVYLQMNSLKPEDTAVYYCNAGISPYEALGYWGQGTQVTVSS | low polyreactivity
QVQLVESGGGLVQAGGSLRLSCAASGSTFRGNAMGWYRQAPGKERELVAAITGRGGRTYYADSVKGRFTISRDNAKNTVYLQMNSLKPEDTAVYYCAAYSRYKPYGITAYDYWGQGTQVNVSS | high polyreactivity
QVQLVESGGGLVQAGGSLRLSCAASGGTFYAYAMGWYRQAPGKERELVAAISRSGSTYYADSVKGRFTISRDNAKNTVYLQMNSLKPEDTAVYYCAARRARRDPVGYVYAKYGYWGQGTQVTVSS | high polyreactivity
QVQLVDSGGGLVHAGGRLGLSREDYGSTFPYYSMGWYRQAPGKERELVAAISGGGGSTYYADSVKGRFTISRDNAKNTVYLQMNSLKPEDSAVYYCNAYKYISPGDYWGQGTQVTVSS | high polyreactivity
QVQLVESGGGLVQAGGSLRLSCAASGFTFVGNAMGWSRQAPGKERELVAAIRWSSGSTYYADSVKGRFTISRDNAKNTVYLQMNSLKPEDTAVYYCAADYWTGITPDAIGDYWGQGTQVTVSS | low polyreactivity
QVQLVESGGGLVQAGGSLRLSCAASGRTFARYAMGWYRQAPGKERELVAAINRSGGSTYYADSVKGRFTISRDNAKNTVYLQMNSLKPEDTAVYYCNARDPYTYRYSYYYWGQGTQVTVSS | high polyreactivity
EVQLVESGGGLVQAGGSLRLSCAASGSIYGSYAKGWYRQAPGKERELVAGITYRGSSTYYADSVKGRFTISRDNAKYTVYLLMNSLKPEDTAVYYCAADPVFDEYDYWGQGTQVTVSS | low polyreactivity
QVQLVESGGGLVQAGGSLRLSCAASGLTFVQYAMGWYRQAPGKERELVAAISRNGGSTYYADSVKGRFTISRDNAKNTVYLQMNSLKPEDTAVYYCATRISYPWWAYDYWGQGTQVTVSS | high polyreactivity
QVQLVESGGGLVQAGGSLRLSCAASGLTFNRNAMGWYRQAPGKERELVATISGSGASTYYADSVKGRFTISRDYAKNTVYLQMNSLKPEDTAVYDCAARWHYSWGSYGFDYWGQGTQVTVSS | high polyreactivity
QVQLVESGGGLVQAGGSLRLSCAASGSIFDVNAMGWYRQAPGKERELVAAISQRGTRTYYADSVKGRFTISRENAKNTVYLQMNSLKPEDTAVYYCNRGGWRQYDSWGQGTQVTVSS | high polyreactivity
QVQLVESGGGLVQAGGSLRLSCAASGRIFGENALGWYRQAPGKEREFVAVISISDASTYYADSVKGRFTISRDNAKNTVYLQMISLKPEDTAVYYCAAELTDFLYVASDYWGQGTQVTVSS | low polyreactivity
QVQLVESGGGLVQAGGSLRLSCAASVFTFRGNAMGWYRQAPGKERELVAAITSSDDSTYYADSVKGRFTISRDNAKNTVYLQMNSLKPEDTAVYYCAAVANGYWTYEYWGQGTQVTVSS | low polyreactivity
QVQLVESGGGLVQAGGSLRLSCAASGSIFDIYAMGGYRQAPGKERELVAGITRDDGSTYYADSVKGRFTISRDNAKNTVYLQMNSLNPEDTAVYYCNRPGDYPDYVPGYYYWGQGTQVTVSS | low polyreactivity
QVQLVESVGGLVQAGGSLRLSCAASGSTISLYKGWYRQAPGNETELVAAITYSGGRTYYADSVKGRFTISRDNAKNTVYLQMNSLKPEDTAVYYCATVFNDLTVYEYWSRFDYWGQGTQVTVSS | low polyreactivity
QVQLVESGGGLVQAGGSLRLSCAASGITFDHYAMGWYRQAPGKERELVAAITSGGNTNYADSVKGRFTISRDNAKNTVYLQMNSLKPEDTAVYYCNARYDVWYYYWGQGTQVTVSS | high polyreactivity
QVQLVESGGGLVQAGGSLRLSCAASGITFHDNAMGWYRQAPGKERELVAVITRRGGRTYYADSVKGRFTISRDNAKNTVYLQMNSLKPEDTAVYYCAAYYDYTHRFYYWGQGTQVTVSS | high polyreactivity
QVQLVESGGGLVQAGGSLRLSCAASGRIFGINVMGWYRQAPGKERELVARITGRGGRTYYADSVKGRFTISRDNAKNTVYLQMNSLKPEDTAVYYCAADARYEAYDYWGQGTQVTVSS | high polyreactivity
QVQLVESGGGLVQAGGSLRLTCAASGSTFYSNAMGWYRQATGKERELVASIRFSGVITTYADSVKGRFTISRDNAKNTVYLQMNSLKPEDTAVYYCAAGYLSTTAYDYWGQGTQVTVSS | low polyreactivity
QVQLVESAGGLVQAGGSLRLSCAASGLTFYLYVMGWSRQATGKERELVAAISRRGGTTYYADSVKGRFTISRDNAKNTVYLQMNSLKPEDTAVYYCNKADAVGRDYDYWGQGTQVTVSS | high polyreactivity
QVQLVESGGGLVQAGGSLRLSCAASGSTFLYYAMGWYRPAPGKERELVAAISSGDSTYADSVKGRFTISRDNAKNTVYLQMNSLKPEDTAVYYCNTVLYPYWQWDYEFDYWGQGTQVTVSS | low polyreactivity
